Assay results taken from patent publication US20160200782A1.

Columns and labels:
Assay in all cases: cell-based or functional assay
[1] = biological target: ALK4(h) (human) (UniProt P36896)
[2] = biological target: AMPKa1(h) (human) (UniProt Q13131)
[3] = biological target: Ab1(h) (human) (UniProt P00519)
[4] = biological target: CK1γ1(h) (human) (UniProt Q9HCP0)
[5] = biological target: CK1γ2(h) (human) (UniProt P78368)
[6] = biological target: CK1γ3(h) (human) (UniProt Q9Y6M4)
[7] = biological target: CK2α2(h) (human) (UniProt P19784)
[8] = biological target: CLK2(h) (human) (UniProt P49760)
[9] = biological target: DAPK1(h) (human) (UniProt P53355)
[10] = biological target: DMPK(h) (human) (UniProt Q09013)
Sequence of DMPK(h) (human) (Q09013 whole entry): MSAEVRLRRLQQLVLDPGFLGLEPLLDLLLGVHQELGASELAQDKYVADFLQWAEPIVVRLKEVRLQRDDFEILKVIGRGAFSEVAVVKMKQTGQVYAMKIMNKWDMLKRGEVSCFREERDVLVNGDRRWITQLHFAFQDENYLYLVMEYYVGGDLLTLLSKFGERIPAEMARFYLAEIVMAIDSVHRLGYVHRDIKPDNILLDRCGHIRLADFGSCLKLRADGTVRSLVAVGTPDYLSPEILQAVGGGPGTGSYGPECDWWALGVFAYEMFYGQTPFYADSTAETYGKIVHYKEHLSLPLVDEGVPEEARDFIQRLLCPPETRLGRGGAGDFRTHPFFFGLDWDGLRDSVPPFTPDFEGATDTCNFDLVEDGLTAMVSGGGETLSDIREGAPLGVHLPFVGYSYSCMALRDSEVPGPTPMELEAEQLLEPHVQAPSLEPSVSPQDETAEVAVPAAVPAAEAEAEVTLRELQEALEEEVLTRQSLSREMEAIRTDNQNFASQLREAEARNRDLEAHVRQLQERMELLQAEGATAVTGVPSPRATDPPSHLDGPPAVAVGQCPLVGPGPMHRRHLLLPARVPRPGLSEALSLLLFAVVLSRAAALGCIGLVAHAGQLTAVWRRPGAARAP

[11] = biological target: EphA2(h) (human) (UniProt P29317)
[12] = biological target: ErbB4(h) (human) (UniProt Q15303)
[13] = biological target: FGFR1(V561M)(h) (human) (UniProt P11362)
[14] = biological target: FGFR2(N549H)(h) (human) (UniProt P21802)
[15] = biological target: Fgr(h) (human) (UniProt P09769)
[16] = biological target: Fms(Y969C)(h) (human) (UniProt P07333)
Sequence of Fms(Y969C)(h) (human) (P07333 538-972 Y969C limits assumed): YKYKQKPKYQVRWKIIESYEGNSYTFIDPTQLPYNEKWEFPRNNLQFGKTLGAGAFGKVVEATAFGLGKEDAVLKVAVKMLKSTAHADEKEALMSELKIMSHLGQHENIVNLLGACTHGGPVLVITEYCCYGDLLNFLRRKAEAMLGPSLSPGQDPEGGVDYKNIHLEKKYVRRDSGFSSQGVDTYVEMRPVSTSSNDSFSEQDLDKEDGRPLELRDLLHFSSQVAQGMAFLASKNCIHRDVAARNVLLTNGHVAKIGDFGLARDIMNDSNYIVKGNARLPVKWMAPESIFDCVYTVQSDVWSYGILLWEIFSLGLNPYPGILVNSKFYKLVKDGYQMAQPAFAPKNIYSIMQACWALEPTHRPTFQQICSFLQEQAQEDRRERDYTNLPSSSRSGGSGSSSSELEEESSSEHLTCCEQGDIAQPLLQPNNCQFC

[17] = biological target: Fms(h) (human) (UniProt P07333)
Sequence of Fms(h) (human) (P07333 538-972 limits assumed): as the sequence (P07333 538-972 Y969C limits assumed) above, with C432Y counted along it

[18] = biological target: GRK5(h) (human) (UniProt P34947)
[19] = biological target: Haspin(h) (human) (UniProt Q8TF76)
[20] = biological target: Hck(h) (human) (UniProt P08631)
Sequence of Hck(h) (human) (P08631 251-518 limits assumed): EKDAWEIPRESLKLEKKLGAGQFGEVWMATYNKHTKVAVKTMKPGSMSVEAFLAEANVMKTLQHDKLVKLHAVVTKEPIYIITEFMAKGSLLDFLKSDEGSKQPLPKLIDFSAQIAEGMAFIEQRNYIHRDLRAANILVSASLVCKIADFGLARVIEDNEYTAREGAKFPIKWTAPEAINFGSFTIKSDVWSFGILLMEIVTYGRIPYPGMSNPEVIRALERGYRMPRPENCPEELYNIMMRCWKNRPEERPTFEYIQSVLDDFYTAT

[21] = biological target: IGF-1R(h) (human) (UniProt P08069)
[22] = biological target: JAK2(h) (human) (UniProt O60674)
Sequence of JAK2(h) (human) (O60674 808-1132 limits assumed): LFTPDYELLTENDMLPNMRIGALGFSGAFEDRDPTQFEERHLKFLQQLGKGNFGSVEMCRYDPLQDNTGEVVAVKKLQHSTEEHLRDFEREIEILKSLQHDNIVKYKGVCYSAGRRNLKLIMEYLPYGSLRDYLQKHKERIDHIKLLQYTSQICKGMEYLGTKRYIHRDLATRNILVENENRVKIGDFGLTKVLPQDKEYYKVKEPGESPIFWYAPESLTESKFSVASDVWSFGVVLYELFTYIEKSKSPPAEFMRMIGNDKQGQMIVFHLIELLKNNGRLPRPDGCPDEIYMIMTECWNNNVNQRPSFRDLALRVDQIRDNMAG

[23] = biological target: JNK1α1(h) (human) (UniProt P45983)
[24] = biological target: MAPK1(h) (human) (UniProt P28482)
[25] = biological target: MKK6(h) (human) (UniProt P52564)
Sequence of MKK6(h) (human) (P52564 whole entry): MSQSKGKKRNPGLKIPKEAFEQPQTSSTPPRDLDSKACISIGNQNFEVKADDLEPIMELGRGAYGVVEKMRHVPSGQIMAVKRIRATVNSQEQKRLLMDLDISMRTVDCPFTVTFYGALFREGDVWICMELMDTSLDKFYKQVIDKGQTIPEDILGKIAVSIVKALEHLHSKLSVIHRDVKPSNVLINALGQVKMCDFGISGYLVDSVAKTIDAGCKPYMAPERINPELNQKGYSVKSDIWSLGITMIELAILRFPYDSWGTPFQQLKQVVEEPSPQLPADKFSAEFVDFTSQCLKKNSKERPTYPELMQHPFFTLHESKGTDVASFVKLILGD

[26] = biological target: MKK7β(h) (human) (UniProt O14733)
[27] = biological target: MRCKβ(h) (human) (UniProt Q9Y5S2)
Sequence of MRCKβ(h) (human) (Q9Y5S2 1-473 limits assumed): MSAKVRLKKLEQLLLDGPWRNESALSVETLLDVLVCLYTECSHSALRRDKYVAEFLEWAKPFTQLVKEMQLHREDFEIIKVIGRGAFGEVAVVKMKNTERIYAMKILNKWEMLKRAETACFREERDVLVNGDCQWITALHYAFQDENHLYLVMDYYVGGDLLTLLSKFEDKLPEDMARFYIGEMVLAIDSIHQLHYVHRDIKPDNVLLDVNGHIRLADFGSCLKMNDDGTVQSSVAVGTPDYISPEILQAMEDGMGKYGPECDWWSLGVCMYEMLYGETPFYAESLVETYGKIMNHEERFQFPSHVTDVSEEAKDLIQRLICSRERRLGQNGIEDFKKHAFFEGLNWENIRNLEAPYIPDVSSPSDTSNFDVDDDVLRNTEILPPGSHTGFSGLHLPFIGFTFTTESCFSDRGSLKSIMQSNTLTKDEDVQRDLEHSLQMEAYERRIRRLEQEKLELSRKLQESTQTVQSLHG

[28] = biological target: Met(Y1248H)(h) (human) (UniProt P08581)
[29] = biological target: Met(h) (human) (UniProt P08581)
[30] = biological target: NEK2(h) (human) (UniProt P51955)
[31] = biological target: PAK6(h) (human) (UniProt Q9NQU5)
[32] = biological target: Plk1(h) (human) (UniProt P53350)
[33] = biological target: Ret(V804M)(h) (human) (UniProt P07949)
[34] = biological target: TAK1(h) (human) (UniProt O43318)
[35] = biological target: Tie2(R849W)(h) (human) (UniProt Q02763)
Sequence of Tie2(R849W)(h) (human) (Q02763 771-1124 R849W limits assumed): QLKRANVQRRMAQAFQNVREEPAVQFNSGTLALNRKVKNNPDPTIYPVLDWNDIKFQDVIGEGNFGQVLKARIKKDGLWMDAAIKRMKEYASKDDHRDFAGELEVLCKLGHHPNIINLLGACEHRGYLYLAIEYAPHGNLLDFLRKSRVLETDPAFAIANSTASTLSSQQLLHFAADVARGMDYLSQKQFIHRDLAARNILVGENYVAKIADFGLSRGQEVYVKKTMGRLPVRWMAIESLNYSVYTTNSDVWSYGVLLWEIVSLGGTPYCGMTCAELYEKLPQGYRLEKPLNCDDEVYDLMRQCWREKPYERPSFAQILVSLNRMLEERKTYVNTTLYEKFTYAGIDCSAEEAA

[36] = biological target: Tie2(Y897S)(h) (human) (UniProt Q02763)
Sequence of Tie2(Y897S)(h) (human) (Q02763 771-1124 Y897S limits assumed): as the sequence (Q02763 771-1124 R849W limits assumed) above, with W79R, Y127S counted along it

[37] = biological target: TrkA(h) (human) (UniProt P04629)
[38] = biological target: Txk(h) (human) (UniProt P42681)
[39] = biological target: Yes(h) (human) (UniProt P07947)
[40] = biological target: PAK3(h) (human) (UniProt O75914)
Further: test concentration or dose not given here.

Sequence of ALK4(h) (human) (P36896 150-505 limits assumed): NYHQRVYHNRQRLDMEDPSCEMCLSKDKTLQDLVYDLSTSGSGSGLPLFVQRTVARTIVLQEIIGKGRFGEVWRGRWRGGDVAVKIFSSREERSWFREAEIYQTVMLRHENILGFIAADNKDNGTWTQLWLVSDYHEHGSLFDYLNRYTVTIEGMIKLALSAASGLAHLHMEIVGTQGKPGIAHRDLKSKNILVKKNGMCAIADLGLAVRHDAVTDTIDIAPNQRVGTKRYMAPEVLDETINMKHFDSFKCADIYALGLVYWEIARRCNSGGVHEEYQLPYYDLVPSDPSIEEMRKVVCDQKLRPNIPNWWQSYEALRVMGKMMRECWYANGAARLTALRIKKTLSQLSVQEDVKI
Sequence of Ab1(h) (human) (P00519 27-1130 limits assumed): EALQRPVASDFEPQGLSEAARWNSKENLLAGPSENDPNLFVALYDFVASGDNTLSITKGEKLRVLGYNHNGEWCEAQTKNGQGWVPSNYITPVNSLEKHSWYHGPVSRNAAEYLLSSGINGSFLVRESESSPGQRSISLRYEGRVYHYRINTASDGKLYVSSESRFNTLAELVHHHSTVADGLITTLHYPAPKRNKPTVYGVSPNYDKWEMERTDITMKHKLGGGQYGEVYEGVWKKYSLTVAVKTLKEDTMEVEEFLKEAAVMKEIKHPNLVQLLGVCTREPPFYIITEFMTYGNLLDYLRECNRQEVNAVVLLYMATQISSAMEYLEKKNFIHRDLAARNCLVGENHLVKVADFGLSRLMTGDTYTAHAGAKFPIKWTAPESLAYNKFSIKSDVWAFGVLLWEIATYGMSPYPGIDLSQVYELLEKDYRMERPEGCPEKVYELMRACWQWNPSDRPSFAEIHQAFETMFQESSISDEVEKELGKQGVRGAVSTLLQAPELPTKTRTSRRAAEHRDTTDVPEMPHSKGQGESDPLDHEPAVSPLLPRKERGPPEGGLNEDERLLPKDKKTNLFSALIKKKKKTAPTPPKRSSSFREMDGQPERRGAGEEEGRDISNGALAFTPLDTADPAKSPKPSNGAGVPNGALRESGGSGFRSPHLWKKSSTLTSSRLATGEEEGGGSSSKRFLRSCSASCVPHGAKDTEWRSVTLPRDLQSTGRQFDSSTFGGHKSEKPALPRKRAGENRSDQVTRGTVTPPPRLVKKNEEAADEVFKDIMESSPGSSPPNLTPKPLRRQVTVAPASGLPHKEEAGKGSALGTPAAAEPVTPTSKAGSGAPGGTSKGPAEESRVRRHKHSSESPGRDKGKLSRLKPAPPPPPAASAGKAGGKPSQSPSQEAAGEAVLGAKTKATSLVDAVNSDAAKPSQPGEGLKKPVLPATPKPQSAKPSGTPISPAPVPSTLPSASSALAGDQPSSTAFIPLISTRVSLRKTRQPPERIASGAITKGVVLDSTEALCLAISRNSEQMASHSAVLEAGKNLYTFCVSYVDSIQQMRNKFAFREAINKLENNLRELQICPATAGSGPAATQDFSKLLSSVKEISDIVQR
Sequence of AMPKa1(h) (human) (Q13131 whole entry): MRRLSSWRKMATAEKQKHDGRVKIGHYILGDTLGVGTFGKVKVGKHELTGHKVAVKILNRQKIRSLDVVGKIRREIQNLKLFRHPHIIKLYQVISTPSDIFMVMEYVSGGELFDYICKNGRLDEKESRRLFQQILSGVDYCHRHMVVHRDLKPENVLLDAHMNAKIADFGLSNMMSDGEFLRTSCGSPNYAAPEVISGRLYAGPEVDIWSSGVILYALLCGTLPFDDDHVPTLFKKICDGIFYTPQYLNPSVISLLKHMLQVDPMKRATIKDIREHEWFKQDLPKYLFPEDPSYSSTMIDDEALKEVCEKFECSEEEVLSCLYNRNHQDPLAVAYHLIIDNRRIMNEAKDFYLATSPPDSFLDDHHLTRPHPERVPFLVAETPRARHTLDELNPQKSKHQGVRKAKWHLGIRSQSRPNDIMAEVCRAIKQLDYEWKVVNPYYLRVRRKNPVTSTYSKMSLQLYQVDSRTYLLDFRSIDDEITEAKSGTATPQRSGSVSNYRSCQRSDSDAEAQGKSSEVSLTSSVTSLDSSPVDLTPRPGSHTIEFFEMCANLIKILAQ

| Substance | % activity [1] [%] | % activity [2] [%] | % activity [3] [%] | % activity [4] [%] | % activity [5] [%] | % activity [9] [%] | % activity [10] [%] | % activity [12] [%] | % activity [17] [%] | % activity [19] [%] | % activity [20] [%] | % activity [22] [%] | % activity [25] [%] | % activity [27] [%] | % activity [28] [%] | % activity [29] [%] | % activity [30] [%] | % activity [33] [%] | % activity [36] [%] | % activity [38] [%] | further results |
| --- | --- | --- | --- | --- | --- | --- | --- | --- | --- | --- | --- | --- | --- | --- | --- | --- | --- | --- | --- | --- | --- |
| MMI-0100 (peptide) | 124 | 107 | 136 | 110 | 119 | 97 | 60 | 73 | 89 | 127 | 354 | 89 | 74 | 103 | 88 | 104 | 102 | 92 | 99 | 87 | % activity [6]: 105%; % activity [7]: 104%; % activity [8]: 88%; % activity [11]: 58%; % activity [13]: 108%; % activity [14]: 95%; % activity [15]: 54%; % activity [16]: 126%; % activity [18]: 117%; % activity [21]: 102%; % activity [23]: 91%; % activity [24]: 108%; % activity [26]: 137%; % activity [31]: 121%; % activity [32]: 109%; % activity [34]: 116%; % activity [35]: 102%; % activity [37]: 74%; % activity [39]: 49% |
| MMI-0500 (peptide) | 81 | 35 | 16 | – | – | 0 | 12 | 2 | 14 | 25 | 78 | 49 | 18 | -10 | 126 | 27 | 0 | 36 | 80 | 10 | % activity [37]: 24% |
| MMI-0200 (peptide) | 152 | 108 | 107 | 98 | 104 | 113 | 66 | 82 | 92 | 71 | 107 | 131 | 98 | 102 | 153 | 71 | 97 | 105 | 85 | 98 | % activity [6]: 96%; % activity [7]: 88%; % activity [8]: 97%; % activity [11]: 95%; % activity [13]: 72%; % activity [14]: 104%; % activity [15]: 71%; % activity [16]: 88%; % activity [18]: 135%; % activity [21]: 49%; % activity [23]: 106%; % activity [24]: 97%; % activity [26]: 117%; % activity [40]: 50%; % activity [31]: 105%; % activity [32]: 128%; % activity [34]: 124%; % activity [35]: 89%; % activity [39]: 93% |
